Assay results taken from patent CN110538321A (JIANGSU HENGRUI MEDICINE CO; SHANGHAI HENGRUI …, dated 2019).
Where a chain is given by its changes, count along the chain named.

Key:
[1] = molecular target: T1, 人CD47蛋白 (Leukocyte surface antigen CD47) (human, UniProt Q08722 19-141); assay: Biacore (SPR), reference antibody of the comparison
T1 construct: extracellular domain; The assays say only 'CD47'; also called human CD47

[2] = molecular target: T1, 人CD47蛋白 (Leukocyte surface antigen CD47); assay: CD47 binding ELISA, hybridoma screening
[3] = molecular target: T1, 人CD47蛋白 (Leukocyte surface antigen CD47); assay: Biacore (SPR)

T1 sequence (Q08722 19-141 limits assumed): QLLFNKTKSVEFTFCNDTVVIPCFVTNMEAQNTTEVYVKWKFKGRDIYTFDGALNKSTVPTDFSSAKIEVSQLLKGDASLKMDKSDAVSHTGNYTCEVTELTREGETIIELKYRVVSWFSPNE

B1: 嵌合抗体ch-055 (antibody, V domains shown)
VH: QVLLQQSGPELVQPGASVKISCKASGYSFTSSYLHWVKQRPGQGLDWIGWIYPESGNTKYNERFKGKATLTADTSSSTAYMQLSSLTSEDSAVYYCSRRGDVFFAYWGQGTTLTVSS
VL: DIVMTQSPSYLTVTAGEKVTMSCKSSQSLLTSGKQKNYLTWYQQKPGQPPKLLIYWASTRESGVPERFRGSGSGTDFTLTISSVQAEDLAVYYCQNDYSYPLTFGAGTKLELN
notes: Chimeric antibody of clone 055
[1]
  binding result: binds

B2: 杂交瘤克隆055鼠源抗体 (antibody, V domains shown)
VH: B1 VH
VL: B1 VL
notes: Mouse hybridoma antibody; also called 鼠源抗体055
[2]
  binding result: binds

B3: 杂交瘤克隆167鼠源抗体 (antibody, V domains shown)
VH: QVQLQQPGAELVRPGSSVKLSCKASGYTFTSYWMHWVKQRPIQGLEWVGNIDPSDSETHYNQKFKDKATLTVDKSSSTAYMQLSSLTSEDSAVYYCARWGYLGRSAMDYWGQGTSVTVSS
VL: DVQITQSPSYLAASPGETITINCRTSKSISKFLAWYQEKPGKTHKLLIYSGSTLQSGIPSRFSGSGSGTDFTLTISSLEPEDFAMYYCQQHNEYPWTFGGGTKLEIK
notes: Mouse hybridoma antibody; also called 鼠源抗体167
[2]
  binding result: binds

B4: hu167-31 (antibody, V domains shown)
VH: QVQLVQSGAEVKKPGASVKVSCKASGYTFTSYWMHWVRQAPGQGLEWMGNIDPSDSETHYNQKFKDRVTMTRDTSISTAYMELSRLRSDDTAVYYCARWGYLGRSAMDYWGQGTTVTVSS
VL: DVQMTQSPSSLSASVGDRVTITCRTSKSISKFLAWYQQKPGKAPKLLIYSGSTLQSGVPSRFSGSGSGTDFTLTISSLQPEDFATYYCQQHNEYPWTFGGGTKVEIK
[3]
  KD ratio relative to hu167-4: 1.3

B5: hu167-32 (antibody, V domains shown)
VH: B4 VH
VL: B4 VL with V2I, M4I
[3]
  KD ratio relative to hu167-4: 1.2

B6: hu167-33 (antibody, human IgG4 S228P, kappa, F234A L235A, V domains shown)
VH: B4 VH
VL: DVQITQSPSSLSASVGDRVTITCRTSKSISKFLAWYQQKPGKAPKLLIYSGSTLQSGVPSRFSGSGSGTDFTLTISSLQPEDFATYYCQQHNEYPWTFGGGTKVEIKR
[3]
  KD ratio relative to hu167-4: 0.98

B7: hu055-5 (antibody, human IgG4 S228P, kappa, F234A L235A, V domains shown)
VH: QVQLVQSGAEVKKPGASVKVSCKASGYTFTSSYLHWVRQAPGQRLDWIGWIYPESGNTKYNERFKGRATLTADTSASTAYMELSSLRSEDTAVYYCARRGDVFFAYWGQGTTVTVSS
VL: DIVMTQSPDSLAVSLGERATINCKSSQSLLTSGKQKNYLTWYQQKPGQPPKLLIYWASTRESGVPDRFSGSGSGTDFTLTISSLQAEDVAVYYCQNDYSYPLTFGQGTKLEIKR
[3]
  binding result: binds
